From paper PMC4605308 (Nucleic Acids Research, 2015)

Biological target: T1, hexahistidine-tagged ubiquitin (the ubiquitin part of the Rad6^iso∼Ub conjugate) (human, UniProt P0CG48 1-76, C-terminus linked to K88 of Rad6 C88K via an isopeptide linkage)
T1 construct: ubiquitin, human; The final model holds two additional N-terminal residues from the plasmid vector; also called His6-Ub; Ub-His6; source: in the crystal conjugated to Rad6^C88K
Assay: crystal structure; Rad6^iso∼Ub conjugate; sitting drop vapor diffusion at 20°C, 24% PEG 300, 50 mM sodium acetate, pH 5.4; one conjugate in the asymmetric unit, contacts between conjugates in the crystal
Conditions: both partners purified

binding result: binds
B1: Rad6 C88K (the Rad6 part of the Rad6^iso∼Ub conjugate) (enzyme, Saccharomyces cerevisiae, UniProt P06104 1-172, looked up)
chain: MSTPARRRLMRDFKRMKEDAPPGVSASPLPDNVMVWNAMIIGPADTPYEDGTFRLLLEFDEEYPNKPPHVKFLSEMFHPNVYANGEIKLDILQNRWTPTYDVASILTSIQSLFNDPNPASPANVEAATLFKDHKSQYVKRVKETVEKSWEDDMDDMDDDDDDDDDDDDDEAD
modifications: lysine at position 88 linked to the ubiquitin C-terminus via an isopeptide linkage
notes: Rad6, Saccharomyces cerevisiae, with C88K; Written on its own for the non-covalent contact between Rad6 of one conjugate and ubiquitin of another in the crystal; source: E. coli Rosetta2 DE3 pLysS, purified; in the crystal conjugated to His6-Ub; not shown: MBP, N-terminal, cleaved; His6, N-terminal, cleaved
